B1: nuclear coactivator binding domain (NCBD) of CBP (residues 2059–2117) (domain or fragment, mouse, UniProt P45481 2059-2117, looked up)
chain: PPRSISPSALQDLLRTLKSPSSPQQQQQVLNILKSNPQLMAAFIKQRTAKYVANQPGMQ

Legend:
[1] = biological target: p53(1–61), full-length transactivation domain (TAD) of human p53 (human, UniProt P04637 1-61); assay: ITC + NMR titration
[2] = biological target: B1; assay: ITC
[3] = biological target: B1; assay: ITC + NMR titration

| binding result [1] | Binder | Kd [2] [µM] | dH [2] [kcal/mol] | fold weaker binding than p53(1–61) [3] [fold] |
| --- | --- | --- | --- | --- |
| binds | B1 | – | – | – |
| – | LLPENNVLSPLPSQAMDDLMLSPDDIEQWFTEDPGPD (domain or fragment, human, UniProt P04637 25-61, looked up) [p53(25–61)] | 5.4 ± 1.8 | -4.12 ± 0.46 | 2 to 3 |
| – | LSQETFSDLWKLLPE (peptide, UniProt P04637 14-28, looked up) [p53(14–28), isolated AD1 peptide] | – | – | ~170 |

— paper PMC2982890 (Biochemistry, 2010)
